T1: Recombinant Human IL-17 (human, UniProt Q16552 20-155, limits assumed)
T1 sequence (looked up): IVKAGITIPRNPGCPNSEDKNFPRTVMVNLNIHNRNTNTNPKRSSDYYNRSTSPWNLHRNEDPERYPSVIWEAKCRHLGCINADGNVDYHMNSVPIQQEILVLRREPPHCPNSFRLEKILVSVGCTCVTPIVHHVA

B1: DVD1590 (bispecific antibody, human IgG1, kappa)
heavy: not shown
light: DIQMTQSPSSLSASVGDRVTITCRASSGIISYIDWFQQKPGKAPKRLIYATFDLASGVPSRFSGSGSGTDYTLTISSLQPEDFATYYCRQVGSYPETFGQGTKLEIKRTVAAPSVFIFPPDIQMTQSPSSLSASVGDRVTITCRASGNIHNYLTWYQQTPGKAPKLLIYNAKTLADGVPSRFSGSGSGTDYTFTISSLQPEDIATYYCQHFWSIPYTFGQGTKLQITRTVAAPSVFIFPPSDEQLKSGTASVVCLLNNFYPREAKVQWKVDNALQSGNSQESVTEQDSKDSTYSLSSTLTLSKADYEKHKVYACEVTHQGLSSPVTKSFNRGEC
B2: DVD1592 (bispecific antibody, human IgG1, kappa)
heavy: not shown
light: DIQMTQSPSSLSASVGDRVTITCRASSGIISYIDWFQQKPGKAPKRLIYATFDLASGVPSRFSGSGSGTDYTLTISSLQPEDFATYYCRQVGSYPETFGQGTKLEIKRTVAAPSVFIFPPDIQMTQSPSSLSASVGDRVTITCRASGNIHNYLTWYQQTPGKAPKLLIYNAKTLADGVPSRFSGSGSGTDYTFTISSLQPEDIATYYCQHFWSIPYTFGQGTKLQITRTVAAPSVFIFPPSDEQLKSGTASVVCLLNNFYPREAKVQWKVDNALQSGNSQESVTEQDSKDSTYSLSSTLTLSKADYEKHKVYACEVTHQGLSSPVTKSFNRGEC
B3: DVD1595 (bispecific antibody, human IgG1, kappa)
heavy: not shown
light: DTVVTQSPAFLSVTPGEKVTITCITSTDIDVDMNWYQQKPDQPPKLLISQGNTLRPGVPSRFSSSGSGTDFTFTISSLEAEDAATYYCLQSDNLPLTFGQGTKLEIKRTVAAPSVFIFPPDIQMTQSPSSLSASVGDRVTITCRASSGIISYIDWFQQKPGKAPKRLIYATFDLASGVPSRFSGSGSGTDYTLTISSLQPEDFATYYCRQVGSYPETFGQGTKLEIKRTVAAPSVFIFPPSDEQLKSGTASVVCLLNNFYPREAKVQWKVDNALQSGNSQESVTEQDSKDSTYSLSSTLTLSKADYEKHKVYACEVTHQGLSSPVTKSFNRGEC
B4: DVD1596 (bispecific antibody, human IgG1, kappa)
heavy: not shown
light: DIQMTQSPSSLSASVGDRVTITCRASSGIISYIDWFQQKPGKAPKRLIYATFDLASGVPSRFSGSGSGTDYTLTISSLQPEDFATYYCRQVGSYPETFGQGTKLEIKRTVAAPSVFIFPPDTVVTQSPAFLSVTPGEKVTITCITSTDIDVDMNWYQQKPDQPPKLLISQGNTLRPGVPSRFSSSGSGTDFTFTISSLEAEDAATYYCLQSDNLPLTFGQGTKLEIKRTVAAPSVFIFPPSDEQLKSGTASVVCLLNNFYPREAKVQWKVDNALQSGNSQESVTEQDSKDSTYSLSSTLTLSKADYEKHKVYACEVTHQGLSSPVTKSFNRGEC
B5: DVD1594 (bispecific antibody, human IgG1, kappa)
heavy: not shown
light: DIQMTQSPSSLSASVGDRVTITCRASSGIISYIDWFQQKPGKAPKRLIYATFDLASGVPSRFSGSGSGTDYTLTISSLQPEDFATYYCRQVGSYPETFGQGTKLEIKRTVAAPSVFIFPPDTQVTQSPSSLSASVGDRVTITCITSTDIDVDMNWYQQKPGKPPKLLISQGNTLRPGVPSRFSSSGSGTDFTFTISSLQPEDFATYYCLQSDNLPLTFGQGTKLEIKRTVAAPSVFIFPPSDEQLKSGTASVVCLLNNFYPREAKVQWKVDNALQSGNSQESVTEQDSKDSTYSLSSTLTLSKADYEKHKVYACEVTHQGLSSPVTKSFNRGEC
B6: DVD1598 (bispecific antibody, human IgG1, kappa)
heavy: not shown
light: DIQMTQSPSSLSASVGDRVTITCRASSGIISYIDWFQQKPGKAPKRLIYATFDLASGVPSRFSGSGSGTDYTLTISSLQPEDFATYYCRQVGSYPETFGQGTKLEIKRTVAAPSVFIFPPETTVTQSPSSLSASVGDRVTITCITSTDIDVDMNWYQQKPGKPPKLLISQGNTLRPGVPSRFSSSGSGTDFTFTISSLQPEDFATYYCLQSDNLPLTFGQGTKLEIKRTVAAPSVFIFPPSDEQLKSGTASVVCLLNNFYPREAKVQWKVDNALQSGNSQESVTEQDSKDSTYSLSSTLTLSKADYEKHKVYACEVTHQGLSSPVTKSFNRGEC
B7: DVD1599 (bispecific antibody, human IgG1, kappa)
heavy: not shown
light: DIQMTQSPSSLSASVGDRVTITCRASGNIHNYLTWYQQTPGKAPKLLIYNAKTLADGVPSRFSGSGSGTDYTFTISSLQPEDIATYYCQHFWSIPYTFGQGTKLQITRTVAAPSVFIFPPEIVLTQSPDFQSVTPKEKVTITCRASQDIGSELHWYQQKPDQPPKLLIKYASHSTSGVPSRFSGSGSGTDFTLTINGLEAEDAGTYYCHQTDSLPYTFGPGTKVDIKRTVAAPSVFIFPPSDEQLKSGTASVVCLLNNFYPREAKVQWKVDNALQSGNSQESVTEQDSKDSTYSLSSTLTLSKADYEKHKVYACEVTHQGLSSPVTKSFNRGEC
B8: DVD1600 (bispecific antibody, human IgG1, kappa)
heavy: not shown
light: EIVLTQSPDFQSVTPKEKVTITCRASQDIGSELHWYQQKPDQPPKLLIKYASHSTSGVPSRFSGSGSGTDFTLTINGLEAEDAGTYYCHQTDSLPYTFGPGTKVDIKRTVAAPSVFIFPPDIQMTQSPSSLSASVGDRVTITCRASGNIHNYLTWYQQTPGKAPKLLIYNAKTLADGVPSRFSGSGSGTDYTFTISSLQPEDIATYYCQHFWSIPYTFGQGTKLQITRTVAAPSVFIFPPSDEQLKSGTASVVCLLNNFYPREAKVQWKVDNALQSGNSQESVTEQDSKDSTYSLSSTLTLSKADYEKHKVYACEVTHQGLSSPVTKSFNRGEC
B9: DVD1589 (bispecific antibody, human IgG1, kappa)
heavy: not shown
light: DIQMTQSPSSLSASVGDRVTITCRASGNIHNYLTWYQQTPGKAPKLLIYNAKTLADGVPSRFSGSGSGTDYTFTISSLQPEDIATYYCQHFWSIPYTFGQGTKLQITRTVAAPSVFIFPPDIQMTQSPSSLSASVGDRVTITCRASSGIISYIDWFQQKPGKAPKRLIYATFDLASGVPSRFSGSGSGTDYTLTISSLQPEDFATYYCRQVGSYPETFGQGTKLEIKRTVAAPSVFIFPPSDEQLKSGTASVVCLLNNFYPREAKVQWKVDNALQSGNSQESVTEQDSKDSTYSLSSTLTLSKADYEKHKVYACEVTHQGLSSPVTKSFNRGEC
B10: DVD1591 (bispecific antibody, human IgG1, kappa)
heavy: not shown
light: DIQMTQSPSSLSASVGDRVTITCRASGNIHNYLTWYQQTPGKAPKLLIYNAKTLADGVPSRFSGSGSGTDYTFTISSLQPEDIATYYCQHFWSIPYTFGQGTKLQITRTVAAPSVFIFPPDIQMTQSPSSLSASVGDRVTITCRASSGIISYIDWFQQKPGKAPKRLIYATFDLASGVPSRFSGSGSGTDYTLTISSLQPEDFATYYCRQVGSYPETFGQGTKLEIKRTVAAPSVFIFPPSDEQLKSGTASVVCLLNNFYPREAKVQWKVDNALQSGNSQESVTEQDSKDSTYSLSSTLTLSKADYEKHKVYACEVTHQGLSSPVTKSFNRGEC
B11: DVD1290 (bispecific antibody, human IgG1, kappa)
heavy: not shown
light: ETTVTQSPSSLSASVGDRVTITCITSTDIDVDMNWYQQKPGKPPKLLISQGNTLRPGVPSRFSSSGSGTDFTFTISSLQPEDFATYYCLQSDNLPLTFGQGTKLEIKRTVAAPEIVLTQSPDFQSVTPKEKVTITCRASQNIGSELHWYQQKPDQSPKLLIKYASHSISGVPSRFSGSGSGTDFTLTINGLEAEDAATYYCHQSDTLPHTFGQGTKVDIKRTVAAPSVFIFPPSDEQLKSGTASVVCLLNNFYPREAKVQWKVDNALQSGNSQESVTEQDSKDSTYSLSSTLTLSKADYEKHKVYACEVTHQGLSSPVTKSFNRGEC
B12: DVD1593 (bispecific antibody, human IgG1, kappa)
heavy: not shown
light: DTQVTQSPSSLSASVGDRVTITCITSTDIDVDMNWYQQKPGKPPKLLISQGNTLRPGVPSRFSSSGSGTDFTFTISSLQPEDFATYYCLQSDNLPLTFGQGTKLEIKRTVAAPSVFIFPPDIQMTQSPSSLSASVGDRVTITCRASSGIISYIDWFQQKPGKAPKRLIYATFDLASGVPSRFSGSGSGTDYTLTISSLQPEDFATYYCRQVGSYPETFGQGTKLEIKRTVAAPSVFIFPPSDEQLKSGTASVVCLLNNFYPREAKVQWKVDNALQSGNSQESVTEQDSKDSTYSLSSTLTLSKADYEKHKVYACEVTHQGLSSPVTKSFNRGEC
B13: DVD1597 (bispecific antibody, human IgG1, kappa)
heavy: not shown
light: ETTVTQSPSSLSASVGDRVTITCITSTDIDVDMNWYQQKPGKPPKLLISQGNTLRPGVPSRFSSSGSGTDFTFTISSLQPEDFATYYCLQSDNLPLTFGQGTKLEIKRTVAAPSVFIFPPDIQMTQSPSSLSASVGDRVTITCRASSGIISYIDWFQQKPGKAPKRLIYATFDLASGVPSRFSGSGSGTDYTLTISSLQPEDFATYYCRQVGSYPETFGQGTKLEIKRTVAAPSVFIFPPSDEQLKSGTASVVCLLNNFYPREAKVQWKVDNALQSGNSQESVTEQDSKDSTYSLSSTLTLSKADYEKHKVYACEVTHQGLSSPVTKSFNRGEC
B14: DVD1291 (bispecific antibody, human IgG1, kappa)
heavy: not shown
light: EIVLTQSPDFQSVTPKEKVTITCRASQNIGSELHWYQQKPDQSPKLLIKYASHSISGVPSRFSGSGSGTDFTLTINGLEAEDAATYYCHQSDTLPHTFGQGTKVDIKRTVAAPETTVTQSPSSLSASVGDRVTITCITSTDIDVDMNWYQQKPGKPPKLLISQGNTLRPGVPSRFSSSGSGTDFTFTISSLQPEDFATYYCLQSDNLPLTFGQGTKLEIKRTVAAPSVFIFPPSDEQLKSGTASVVCLLNNFYPREAKVQWKVDNALQSGNSQESVTEQDSKDSTYSLSSTLTLSKADYEKHKVYACEVTHQGLSSPVTKSFNRGEC

How the values were obtained:
Recombinant Human IL-1β = Recombinant Human IL-1β (human, UniProt P01584 117-269); test: cell-based or functional assay
Recombinant Human IL-17 = target: T1, Recombinant Human IL-17; test: cell-based or functional assay

Row | Binder | C-Terminal VD IL-1β Neutralization Assay EC50 (Recombinant Human IL-1β) [nM] | N-terminal VD IL-17 Neutralization Assay EC50 (Recombinant Human IL-17) [nM] | N-Terminal VD IL-1β Neutralization Assay EC50 (Recombinant Human IL-1β) [nM] | C-terminal VD IL-17 Neutralization Assay EC50 (Recombinant Human IL-17) [nM]
1 | B1 | 1.6 | 0.0016 | – | –
2 | B2 | 0.109 | 0.0117 | – | –
3 | B3 | – | – | 0.204 | 0.0019
4 | B4 | 3.44 | 0.0007 | – | –
5 | B5 | 9.1 | 0.0025 | – | –
6 | B6 | 11.9 | 0.0053 | – | –
7 | B7 | – | – | 0.0048 | 0.0504
8 | B8 | 0.794 | 0.0055 | – | –
9 | B9 | – | – | 0.0068 | 0.0011
10 | B10 | – | – | 0.0023 | 0.0393
11 | B11 | – | – | 0.252 | 0.0181
12 | B12 | – | – | 0.184 | 0.001
13 | B13 | – | – | 0.326 | 0.0008
14 | B14 | > 100 | 0.0062 | – | –

— patent US20120034160A1 (AbbVie / Abbott, published 2012)
